In patent US20180021429A1, “ANTICANCER AGENTS OR ANTIMETASTATIC AGENTS USING FSTL1 AND COMBINATION DRUG THEREOF” (PHARMA FOODS INTERNATIONAL CO., LTD., priority 2015, published 2018):

T1: FSTL1 (Homo sapiens, UniProt Q12841)
T1 sequence (Q12841 21-308): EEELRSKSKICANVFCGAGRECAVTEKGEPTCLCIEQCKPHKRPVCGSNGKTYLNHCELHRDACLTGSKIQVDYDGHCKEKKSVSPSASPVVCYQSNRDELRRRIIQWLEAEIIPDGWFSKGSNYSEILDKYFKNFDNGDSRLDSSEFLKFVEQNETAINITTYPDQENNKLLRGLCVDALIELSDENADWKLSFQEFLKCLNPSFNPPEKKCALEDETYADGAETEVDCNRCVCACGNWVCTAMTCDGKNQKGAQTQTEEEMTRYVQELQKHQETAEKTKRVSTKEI

T2: human FSTL1 (Homo sapiens, UniProt Q12841)
T2 construct: AAA linker + 10xHis (C); made in house; host or cells: Expi293 (transient expression; purified from culture supernatant on HisPur Cobalt Resin)
T2 sequence (Q12841 with tags, fused parts or gaps): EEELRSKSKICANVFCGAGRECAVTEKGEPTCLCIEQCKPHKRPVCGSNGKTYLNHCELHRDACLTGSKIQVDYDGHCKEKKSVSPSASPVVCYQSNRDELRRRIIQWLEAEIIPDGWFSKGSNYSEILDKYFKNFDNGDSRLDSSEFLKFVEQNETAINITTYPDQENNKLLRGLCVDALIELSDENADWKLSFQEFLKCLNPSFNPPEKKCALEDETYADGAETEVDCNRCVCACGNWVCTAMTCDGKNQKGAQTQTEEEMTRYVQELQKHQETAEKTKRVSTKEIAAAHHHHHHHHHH

B1: #8-1: chicken-mouse chimeric anti-FSTL1 antibody clone; variable regions SEQ ID NO: 791 (light), 793 (heavy) (antibody, V domains shown)
VH: AVTLDESGGGLQTPGGALSLVCKGSGFTFSSFNMFWVRQAPGKGLEWVAGIGKDGVPKYGAAVDGRATISKDNGQSTMRLQLNNLRAEDTGTYFCAKAAGGCSYDWCGIYAGDIDTWGHGTEVIVSS
VL: ASTQPSSVSANPGEAVKITCSGGSGSYYGWYQQKSPGSAPVTVIYNNNQRPSDIPSRFSGSKSGSTATLTITGVQAEDEAVYFCGGYDSSSGHGGIFGAGTTLTVL
modifications: mouse constant regions
B2: #13: chicken-mouse chimeric anti-FSTL1 antibody clone; variable regions SEQ ID NO: 815 (light), 817 (heavy) (antibody, V domains shown)
VH: AVTLDESGGGLQTPGGGLSLVCKASGFTFSSVTMQWVRQAPGKGLEWVASICSGSSTYYGPAVKGRATISRDNGQNTVRLQLNNLRAEDTATYYCAKIVGRGRWSCTSAAYNIDAWGHGTEVIVSS
VL: ASTQPSSVSANPGETVKITCSGGGNNYGWYQQKSPGSAPVTVIYNNNNRPSNIPSRFSGSKSGSTNTLTITGVQAEDEAVYYCGSYDSSSDSGIFGAGTTLTVL
modifications: mouse constant regions
B3: #33: chicken-mouse chimeric anti-FSTL1 antibody clone; variable regions SEQ ID NO: 823 (light), 825 (heavy) (antibody, V domains shown)
VH: AVTLDESGGGLQTPGGGLSLVCKASGFTFSSFNMNWVRQAPGKGLEYVAEISGTGSSTYYGSAVKGRATISRDNGQSTVRLQLNNLRAEDTATYFCARGDGAYSIDAWGHGTEVIVSS
VL: ASTQPSSVSANPGETVEITCSGDSSYYGWFQQKSPGSAPVTVIYDNTNRPSDIPSRFSGSKSGSTATLTITGVRAEDEAVYYCGGYDSSTYDGIFGAGTTLTVL
modifications: mouse constant regions
B4: #6-55: chicken-mouse chimeric anti-FSTL1 antibody clone; variable regions SEQ ID NO: 783 (light), 785 (heavy) (antibody, V domains shown)
VH: AVTLDESGGGLQTPGGALSLVCKGSGFTFTSVTMQWVRQAPGKGLEWVASVCSGSSTYYAPAVKGRATISRDNGQSTVRLQLSNLRPEDTGTYYCAKIAGRARWSCTSAAYNIDAWGHGTEVIVSS
VL: ASTQPSSVSAIPGETVKITCSGGGNNYGWYQQRSPGSAPVTVIYYNDNRPSNIPSRFSGSTSGSTSTLTITGVQADDEAIYYCGSWDSNTDSGIFGAGTTLTVL
modifications: mouse constant regions
B5: #7-34: chicken-mouse chimeric anti-FSTL1 antibody clone; variable regions SEQ ID NO: 787 (light), 789 (heavy) (antibody, V domains shown)
VH: AVTLDESGGGLQTPGGGLSLVCKASGFTFSSVTMQWVRQAPGKGLEWVASICSGSSTYYGPAVKGRATISRDNGQNTVRLQLNNLRAEDTATYYCAKIVGRGRWSCTSAAYNIDAWGHGTEVIVSS
VL: ASTQPSSVSANPGETVKITCSGGGNNYGWYQQKSPGSAPVTVIYYNNNRPSNIPSRFSGSTSGSTSTLTITGVQAEDEAVYYCGSYEGSTDSGIFGAGTTLTVL
modifications: mouse constant regions

Legend:
[1] = test system: GFP-positive and Snail-positive B16-F10 tumor cells; assay: In vivo, intraperitoneal administration, Snail-positive B16-F10 bone metastasis model (Example 18); design: species or system mouse; details: intraperitoneal 10 mg/kg on days 5 and 10; day 14
Text: 1. Experiment Group (n=5) • 1. No treatment (0.9% NaCl as a sham) • 2. Control IgG (anti-DNP) • 3. Anti-FSTL1 Clone #6-55 • 4. Anti-FSTL1 Clone #7-34 • 5. Anti-FSTL1 Clone #8-1 […]
• Effects on the growth of subcutaneous tumor (calculation of tumor volume by tumor size measurement): measured 7, 11, and 14 days after tumor implantation (FIG. 42B) • Effects on bone metastasis (GFP-positive tumor cells in bone marrow or the spleen) (FIGS. 42A and 42C) • Effects on MSC expansion (CD45-negative cells in bone marrow or the spleen) (FIGS. 42A and 42C) • Effects on weight loss (FIG. 42A) • Effects on the expansion of immunosuppressive Treg cells (CD4-positive and Foxp3-positive cells in the spleen) (FIG. 42C) • Other immunosuppressive properties (FIG. 42C)
In Example 17, the antibody was administered into tumor according to the purpose of “inhibiting metastasis from a primary focus to bone” as previously conducted by the present inventors. […] Specifically, antitumor effects and immunosuppression-mitigating effects were comparatively analyzed by the intraperitoneal administration (systemic administration) of the anti-FSTL1 antibody using bone metastasis models in which mouse melanoma cells (B16-F10) forced to express Snail were subcutaneously and intravenously transplanted in C57BL/6N mice. […]

FSTL1 = target: T1, FSTL1; assay: MSC induction inhibition test using mouse bone marrow cells stimulated with FSTL1 (Example 27); assay type: cell-based; design: purchased R&D Systems, Inc. 1694-FN-050; details: FSTL1 20 ng/mL, antibody 10 μg/mL, 8 days
Description: (§1) In this Example, the inhibitory activity of the anti-FSTL1 antibody was confirmed in an experimental system of mesenchymal stem cell induction while a FSTL1 inhibitory effect on MSC expansion induced not only by FSTL1 but by Snail+ tumor cells was also evaluated. For specific operation, each antibody (10 μg/mL) was added to systems in which C57/BL/6 mouse-derived bone marrow cells were stimulated with FSTL1 (20 ng/mL) or a culture supernatant of tumor cells. After culture for 8 days under stimulation, cell fraction CD45(−) cells (MSCs) containing MSCs at a high rate and CD45(−)CD146(+)ALCAM(+) cells (sMSCs) increasing in number in association with cancer metastasis were analyzed by flow cytometry in the same way as in Example 14, and the number of cells per culture system was counted. In this Example, mouse immunoglobulin manufactured by BioLegend, Inc. (4401408, Cone MG1-45) was used as a control antibody.
as §1, with “(#401408,” for “(4401408,”

[2] = test system: GFP+F10-snail+ tumor cells; assay: In vivo drug efficacy of each anti-FSTL1 antibody clone, GFP+F10-snail+ tumor model (Example 32); design: species or system mouse; details: intraperitoneal 10 mg/kg on days 4 and 7; for mouse survival period (life-prolonging effect): FIG. 121
Description: • Day 0: transplantation of GFP+F10-snail+ tumor cells (3×10^5 cells subcutaneously & 2×10^4 cells intravenously) • Day 4: intraperitoneal administration of the antibody (first dose, 10 mg/kg) • Day 7: intraperitoneal administration of the antibody (second dose, 10 mg/kg)
Subcutaneous tumor was measured 4, 7, 10, 14, 17, 20, and 23 days after tumor cell transplantation.

human FSTL1 = target: T2, human FSTL1; assay: ELISA, binding activity of purified antibody against human FSTL1 (Example 2); details: cross reactivity test; antibody diluted from 1000 ng/ml
Description: The reactivity of the obtained antibody clones described above with FSTL1 was evaluated by ELISA under the following conditions.
Antibodies used: anti-dinitrophenyl (DNP) antibody (negative control), #5-2, #5-3, #5-8, #5-10, #5-43, #6-55, and #7-34
FIGS. 64 and 65 show results of evaluating binding activity under the condition of Table 3 as to clones differing in screening and antibody purification timings.

Molecule | effect on weight loss (mouse body weight) [1] | inhibitory effect in the MSC induction inhibition test (CD45(−) MSCs and sMSCs, flow cytometry) (FSTL1) | mouse survival period (life-prolonging effect) [2] | binding activity against human FSTL1 (human FSTL1) | further results
B1 | anti-weight loss effect |  |  |  | 
B2 |  | strong inhibitory effect equivalent to or higher than that of #6-55 |  |  | 
B3 |  | strong inhibitory effect equivalent to or higher than that of #6-55 | therapeutic effects equal to or higher than those of #6-55 |  | MSC induction inhibitory activity, reproducibility confirmed (FSTL1): high MSC induction inhibitory activity equivalent to or higher than that of #6-55
B4 | anti-weight loss effect |  | statistically significant life-prolonging effect | specific and equivalently strong binding activity | suppressive activity against subcutaneous tumor growth ([2]; vs control antibody group, FIG. 120): statistically significant suppressive activity
B5 |  |  |  | specific and equivalently strong binding activity | 
